Measurements from PMC10268213 (2023).

Experiments:
[1] = target: T1, SARS-CoV-2 receptor-binding domain (RBD) (SARS-CoV-2, UniProt P0DTC2); assay: SPR
[2] = target: T1, SARS-CoV-2 receptor-binding domain (RBD); assay: SPR; remark: listed apart in the source

Binder	Kd [1]	koff [2]
Nb-C4-225 nanobody (VHH) VHH: EVQLQESGGGLVQPGGSLRLSCAASGFTFSSYAMGWYRQAPGKEREWVCAISGSGGSTYYADSVKGRFTCSRDNSKNTLYLQMNSLKPEDTAVYYCARGSFYYTYGGSVGFDAFDYWGQGTQVTVSS	143 nM	0.0057 s⁻¹
Nb-C4-255 nanobody (VHH) VHH: EVQLQESGGGLVQPGGSLRLSCAASGFTFSSYAMGWYRQAPGKEREWVCAISGSGGSTYYADSVKGRFTCSRDNSKNTLYLQMNSLKPEDTAVYYCARQAWYYSPYGGPEFEAFDYWGQGTQVTVSS	2950 nM	0.295 s⁻¹
Nb-C4-240 nanobody (VHH) VHH: EVQLQESGGGLVQPGGSLRLSCAASGFTFSSYAMGWYRQAPGKEREWVCAISGSGGSTYYADSVKGRFTCSRDNSKNTLYLQMNSLKPEDTAVYYCARVVSYYDQTGFVYWQSYDYWGQGTQVTVSS	1060 nM	0.969 s⁻¹
LM18 nanobody (VHH) VHH: EVQLQESGGGLVQPGGSLRLSCAASGFTFSSYALGWYRQAPGKEREWVCAISGSGGSTYYADSVKGRFTCSRDNSKNTLYLQMNSLKPEDTAVYYCARVYQFYGARDYGYPYDFDYWGQGTQVTVSS	391 nM	0.0944 s⁻¹
Nb-C2-136 nanobody (VHH) VHH: EVQLQESGGGLVQPGGSLRLSCAASGFTFSSYAMGWYRQAPGKEREWVCAISGSGGSTYYADSVKGRFTCSRDNSKNTLYLQMNSLKPEDTAVYYCARYGGPYDPTDSTYAFDYWGQGTQVTVSS	382 nM	0.032 s⁻¹
